Results taken from patent US20210389324.

Key:
[1] = tested on: CFP-MYH6/7-YFP (16-residue)
[2] = tested on: CFP-PROS1-YFP
[3] = tested on: CFP-FOXP3-YFP (25-residue)
[4] = tested on: CFP-MYH6/7-YFP (23-residue)
[5] = tested on: CFP-FOXP3-YFP (18-residue)
[6] = tested on: CFP-V34-YFP
[7] = tested on: CFP-SFVp12-YFP 19:6
[8] = tested on: CFP-SFVp12-YFP 11:6
[9] = tested on: CFP-TRIM14-YFP 22-residue substrate
[10] = tested on: CFP-VEEVnsP23-YFP
[11] = tested on: CFP-TRIM14-YFP 19-residue substrate

Substance	cleavage of CFP-YFP substrate [1]	cleavage of CFP-YFP substrate [2]	cleavage of CFP-YFP substrate [3]	cleavage of CFP-YFP substrate [4]	cleavage of CFP-YFP substrate [5]	Km [6] [µM]	Vmax [6] [U/mg]	cleavage of CFP-YFP substrate [6]	cleavage of CFP-YFP substrate [7]	cleavage of CFP-YFP substrate [8]	Km [9] [µM]	Vmax [9] [U/mg]	cleavage of CFP-YFP substrate [9]	cleavage of CFP-YFP substrate [10]	Km [11] [µM]	Vmax [11] [U/mg]	cleavage of CFP-YFP substrate [11]
Recombinant MERS-CoV-2 Papain-like Protease	SARS-CoV-2, MERS PLpro	SARS-CoV-2, MERS PLpro	SARS-CoV-2, MERS PLpro	SARS-CoV-2, MERS PLpro	SARS-CoV-2, MERS PLpro	–	–	–	–	–	–	–	–	–	–	–	–
Recombinant VEEV nsP2-thioredoxin Protease containing residues 457-792	–	–	–	–	–	21	0.089	VEEV nsP2 cysteine protease	CHIKV and VEEV nsP2 cysteine protease	CHIKV and VEEV nsP2 cysteine protease	26	0.008	VEEV nsP2 cysteine protease	VEEV nsP2 cysteine protease	50	0.012	VEEV nsP2 cysteine protease
